Where two headings read alike, the source gives them in different places.
Tests used:
Conditions in all cases: remark: other sources report otherwise
[1] = target: recombinant soluble homotrimeric HA, A/Hong Kong/156/97 H5N1 (Influenza A virus A/Hong Kong/156/97 (H5N1)); test: microarray, transfection SN IgG, trimeric HA
[2] = target: recombinant soluble homotrimeric HA, A/Vietnam/1203/04 H5N1 (Influenza A virus A/VietNam/1203/2004(H5N1)); test: microarray, transfection SN IgG, trimeric HA
[3] = target: recombinant soluble homotrimeric HA, A/Anhui/1/05 H5N1 (Influenza A virus A/Anhui/1/2005(H5N1)); test: microarray, transfection SN IgG, trimeric HA
[4] = target: recombinant soluble homotrimeric HA, A/California/4/09 H1N1 (Influenza A virus A/California/04/2009(H1N1)); test: microarray, transfection SN IgG, trimeric HA
[5] = target: recombinant soluble homotrimeric HA, A/Solomon Islands/3/06 H1N1 (Influenza A virus A/Solomon Islands/3/2006(H1N1)); test: microarray, transfection SN IgG, trimeric HA
[6] = target: recombinant soluble homotrimeric HA, A/South Carolina/1/18 H1N1 (Influenza A virus A/South Carolina/1/18 (H1N1)); test: microarray, transfection SN IgG, trimeric HA
[7] = target: recombinant soluble homotrimeric HA, A/Japan/305/57 H2N2 (Influenza A virus A/Japan/305/1957(H2N2)); test: microarray, transfection SN IgG, trimeric HA
[8] = target: hemagglutinin (HA) of influenza A/Japan/305/57 (H2N2) on whole virions (Influenza A virus A/Japan/305/1957(H2N2)), P03451; test: ELISA; BCC supernatant on coated inactivated whole virions
[9] = target: recombinant homotrimeric HA A/South Carolina/1/18 H1N1 (Influenza A virus A/South Carolina/1/18 (H1N1)); test: protein microarray, purified IgG, trimeric HA
[10] = target: recombinant homotrimeric HA A/California/4/09 H1N1 (Influenza A virus A/California/04/2009(H1N1)); test: protein microarray, purified IgG, trimeric HA
[11] = target: recombinant homotrimeric HA A/Vietnam/1203/04 H5N1 (Influenza A virus A/VietNam/1203/2004(H5N1)); test: protein microarray, purified IgG, trimeric HA
[12] = target: recombinant homotrimeric HA A/Netherlands/219/03 H7N7 (Influenza A virus A/Netherlands/219/03(H7N7)); test: protein microarray, purified IgG, trimeric HA
[13] = target: recombinant homotrimeric HA A/Anhui/1/05 H5N1 (Influenza A virus A/Anhui/1/2005(H5N1)); test: protein microarray, purified IgG, trimeric HA
[14] = target: recombinant homotrimeric HA A/Japan/305/57 H2N2 (Influenza A virus A/Japan/305/1957(H2N2)); test: protein microarray, purified IgG, trimeric HA
[15] = target: recombinant homotrimeric HA A/Solomon Islands/3/06 H1N1 (Influenza A virus A/Solomon Islands/3/2006(H1N1)); test: protein microarray, purified IgG, trimeric HA
[16] = target: recombinant homotrimeric HA A/Indonesia/5/05 H5N1 (Influenza A virus A/Indonesia/5/2005(H5N1)); test: protein microarray, purified IgG, trimeric HA
[17] = target: recombinant homotrimeric HA A/Egypt/3300-NAMRU3/08 H5N1 (Influenza A virus A/Egypt/3300-NAMRU3/2008(H5N1)); test: protein microarray, purified IgG, trimeric HA
[18] = target: recombinant homotrimeric HA A/Hong Kong/156/97 H5N1 (Influenza A virus A/Hong Kong/156/97 (H5N1)); test: protein microarray, purified IgG, trimeric HA
[19] = target: T1, recombinant soluble homotrimeric HA of A/Hong Kong/2108/03 (H9N2) (Influenza A virus A/HK/2108/2003(H9N2)); test: HA microarray, BCC supernatant
[20] = target: T2, recombinant soluble homotrimeric HA of A/Egypt/3300-NAMRU3/08 (H5N1) (Influenza A virus A/Egypt/3300-NAMRU3/2008(H5N1)); test: HA microarray, BCC supernatant
[21] = target: T3, recombinant soluble homotrimeric HA of A/duck/Yangzhou/02/05 (H8N4) (Influenza A virus A/duck/Yangzhou/02/2005(H8N4)); test: HA microarray, BCC supernatant
[22] = target: T4, recombinant soluble homotrimeric HA of A/Vietnam/1203/04 (H5N1) (Influenza A virus A/VietNam/1203/2004(H5N1)); test: HA microarray, BCC supernatant
[23] = target: T5, recombinant soluble homotrimeric HA of A/Netherlands/219/03 (H7N7) (Influenza A virus A/Netherlands/219/03(H7N7)); test: HA microarray, BCC supernatant
[24] = target: T6, recombinant soluble homotrimeric HA of A/California/4/09 (H1N1) (Influenza A virus A/California/04/2009(H1N1)); test: HA microarray, BCC supernatant
[25] = target: T7, recombinant soluble homotrimeric HA of A/Anhui/1/05 (H5N1) (Influenza A virus A/Anhui/1/2005(H5N1)); test: HA microarray, BCC supernatant
[26] = target: T8, recombinant soluble homotrimeric HA of A/Indonesia/5/05 (H5N1) (Influenza A virus A/Indonesia/5/2005(H5N1)); test: HA microarray, BCC supernatant
[27] = target: T9, recombinant soluble homotrimeric HA of A/Solomon Islands/3/06 (H1N1) (Influenza A virus A/Solomon Islands/3/2006(H1N1)); test: HA microarray, BCC supernatant
[28] = target: T10, recombinant soluble homotrimeric HA of A/Japan/305/57 (H2N2) (Influenza A virus A/Japan/305/1957(H2N2)); test: HA microarray, BCC supernatant
[29] = target: recombinant soluble homotrimeric HA of A/Wisconsin/67/05 (H3N2) (Influenza A virus A/Wisconsin/67/2005(H3N2)); test: HA microarray, BCC supernatant
[30] = target: recombinant soluble homotrimeric HA of A/northern shoveler/California/HKWF115/07 (H6) (Influenza A virus A/northern shoveler/California/HKWF115/2007(H6N1))
[31] = target: recombinant soluble homotrimeric HA of A/chicken/Vietnam/NCVD-016/08 (H5N1) (Influenza A virus A/chicken/Vietnam/NCVD-016/2008(H5N1))
[32] = target: T1, recombinant soluble homotrimeric HA of …
[33] = target: T2, recombinant soluble homotrimeric HA of …
[34] = target: T3, recombinant soluble homotrimeric HA of …
[35] = target: T4, recombinant soluble homotrimeric HA of …
[36] = target: T5, recombinant soluble homotrimeric HA of …
[37] = target: T6, recombinant soluble homotrimeric HA of …
[38] = target: recombinant soluble homotrimeric HA of A/South Carolina/1/18 (H1N1) (Influenza A virus A/South Carolina/1/18 (H1N1))
[39] = target: T7, recombinant soluble homotrimeric HA of …
[40] = target: T8, recombinant soluble homotrimeric HA of …
[41] = target: T9, recombinant soluble homotrimeric HA of …
[42] = target: recombinant soluble homotrimeric HA of A/Hong Kong/1073/99 (H9N2) (Influenza A virus A/Hong Kong/1073/99 (H9N2))
[43] = target: recombinant soluble homotrimeric HA of A/Hong Kong/156/97 (H5N1) (Influenza A virus A/Hong Kong/156/97 (H5N1))
[44] = target: T10, recombinant soluble homotrimeric HA of …
[45] = target: recombinant soluble homotrimeric HA of A/swine/Ontario/01911-2/99 (H4N6) (Influenza A virus A/Swine/Ontario/01911-2/99 (H4N6))

B1: TCN-551 (5243_D01) (antibody, V domains shown)
VH: EVQLVQSGSEVKKPGESLKISCKGSGYSFSNYWIGWVRHMPGKGLEWMGIIYPGDSDTRYSPSFQGQVTMSADKSSSTVYLQWSSLKASDTAIYYCARRGGHSFGYGSGGDTHSEFDSWGQGTLVTVSS
VL: QSVLTQSPSVSAAPGQKVTISCSGSDSNIGDYFVCWYQHLPGKPPQLLIYENNKRPSGIPDRFSGSKSGTSATLGITGIQTGDEADYYCATWDGSLSAWVFGGGTKLTVL
Work on B1 yielded a Trimeric HA Binding: RLU [1] of 792 RLU, a Trimeric HA Binding: RLU [2] of 41900 RLU and a Trimeric HA Binding: RLU [3] of 2640 RLU. It also gave a Trimeric HA Binding: RLU [4] of 46100 RLU, a Trimeric HA Binding: RLU [5] of 43500 RLU and a Trimeric HA Binding: RLU [6] of 4340 RLU. For the same binder, the Trimeric HA Binding: RLU [7] was 25200 RLU, the ELISA virus binding (OD450) [8] was 0.19 OD450 and the Trimeric HA Binding: RLU [9] was 10300 RLU. The Trimeric HA Binding: RLU [10] was 19400 RLU, the Trimeric HA Binding: RLU [11] was 2950 RLU and the Trimeric HA Binding: RLU [12] was 1670 RLU. For the same binder, the Trimeric HA Binding: RLU [13] was 6640 RLU, the Trimeric HA Binding: RLU [14] was 1600 RLU and the Trimeric HA Binding: RLU [15] was 25000 RLU. For the same binder, the Trimeric HA Binding: RLU [16] was 296 RLU, the Trimeric HA Binding: RLU [17] was 907 RLU and the Trimeric HA Binding: RLU [18] was 824 RLU. The Trimeric HA Binding: RLU [19] was 224 RLU, the Trimeric HA Binding: RLU [20] was 47200 RLU and the Trimeric HA Binding: RLU [21] was 9820 RLU. For the same binder, the Trimeric HA Binding: RLU [22] was 4150 RLU, the Trimeric HA Binding: RLU [23] was 786 RLU and the Trimeric HA Binding: RLU [24] was 53400 RLU. The Trimeric HA Binding: RLU [25] was 4190 RLU, the Trimeric HA Binding: RLU [26] was 53500 RLU and the Trimeric HA Binding: RLU [27] was 53800 RLU. It also gave a Trimeric HA Binding: RLU [28] of 22600 RLU and a Trimeric HA Binding: RLU [29] of 6840 RLU.

B2: TCN-564 (5256_A17b) (antibody, V domains shown)
VH: QVQLVQSGADVKKPGSSVTVSCKASGGSFSNYGINWVRQAPGQGLEWMGGIIPLINAPNYAPKFQGRVTITADMFSNIVSLQLTSLRTDDTAVYYCARRKMTTAIDYWGQGTLVTVSS
VL: QPVLSQPPSASASLGASVTLTCTLSSGFDNYQVAWYQQRPGKGPRFVMRVGNGGNVASKGDGIPDRFSVSGSGLNRYLTIKNIQEDDESDYYCGADHGSGNNFVSPYVFGGGTKLTVL
B2 showed a Trimeric HA Binding: RLU [30] of 16000 RLU, a Trimeric HA Binding: RLU [31] of 5860 RLU and a Trimeric HA Binding: RLU [32] of 272 RLU. For the same binder, the Trimeric HA Binding: RLU [33] was 19900 RLU, the Trimeric HA Binding: RLU [34] was 369 RLU and the Trimeric HA Binding: RLU [35] was 25400 RLU. It also gave a Trimeric HA Binding: RLU [36] of 1410 RLU, a Trimeric HA Binding: RLU [37] of 27500 RLU and a Trimeric HA Binding: RLU [38] of 15100 RLU. The Trimeric HA Binding: RLU [39] was 4260 RLU, the Trimeric HA Binding: RLU [40] was 26300 RLU and the Trimeric HA Binding: RLU [41] was 8570 RLU. The Trimeric HA Binding: RLU [42] was 9470 RLU, the Trimeric HA Binding: RLU [43] was 18100 RLU and the Trimeric HA Binding: RLU [44] was 20200 RLU. For the same binder, the Trimeric HA Binding: RLU [45] was 251 RLU.

From patent publication US20150086555A1
